In test [1] the target is human Trop-2 (human) (UniProt P09758). As to the kind of experiment: cell binding on NCI-N87 cells, anti-mouse-HRP secondary, luminescence.
Test [2] has the same target. As to the kind of experiment: cell binding on NCI-N87 cells, maximum binding compared to murine RS7.
For test [3] the target is unchanged. Briefly: cell binding assay on Trop-2 expressing cells, cell line not named.

One may read the Kd as the equilibrium constant for the complex coming apart.

human Trop-2 (human), sequence (P09758 27-323): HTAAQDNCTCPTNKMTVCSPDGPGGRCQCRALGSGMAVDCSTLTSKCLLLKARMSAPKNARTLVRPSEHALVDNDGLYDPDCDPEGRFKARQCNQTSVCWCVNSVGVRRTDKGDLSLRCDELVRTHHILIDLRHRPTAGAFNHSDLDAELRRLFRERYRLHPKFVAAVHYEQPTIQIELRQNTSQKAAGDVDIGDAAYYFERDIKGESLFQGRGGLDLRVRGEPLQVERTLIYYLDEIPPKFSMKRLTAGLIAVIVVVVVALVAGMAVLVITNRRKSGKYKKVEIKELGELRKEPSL

Molecule “162-46.2 murine monoclonal antibody against human Trop-2” registered a BMax (maximum binding) (relative luminescent units) with human Trop-2 (human) [1] of 8470. In the test with human Trop-2 (human) [2], this molecule came in with a reduction of maximum binding relative to RS7 of 25%.
Regarding “MAB650 murine monoclonal antibody against human Trop-2”, in the test with human Trop-2 (human) [1], the BMax (maximum binding) (relative luminescent units) is 6020 and the Kd amounted to 0.49 nM. Also, in the test with human Trop-2 (human) [2], the reduction of maximum binding relative to RS7 was 50%.
hRS7-CL2A-SN-38 antibody-drug conjugate yielded an equilibrium dissociation constant (Kd) with human Trop-2 (human) [3] of 1.2 nM.

B1: hRS7-CL2-SN-38 antibody-drug conjugate (antibody, INN chains, looked up, V domains shown)
VH: QVQLQQSGSELKKPGASVKVSCKASGYTFTNYGMNWVKQAPGQGLKWMGWINTYTGEPTYTDDFKGRFAFSLDTSVSTAYLQISSLKADDTAVYFCARGGFGSSYWYFDVWGQGSLVTVSS
VL: DIQLTQSPSSLSASVGDRVSITCKASQDVSIAVAWYQQKPGKAPKLLIYSASYRYTGVPDRFSGSGSGTDFTLTISSLQPEDFAVYYCQQHYITPLTFGAGTKVEIK
modifications: SN-38 via CL2 linker
Turning to B1, in the test with human Trop-2 (human) [3], the Kd was 1.2 nM.

The values above are taken from patent publication US20180271992A1.
